This note sets out measurements from paper PMC3657613 (Nature chemical biology, 2012).

For assay [1], the target named is MC4R Δ1–24 (Homo sapiens, UniProt P32245). As to the kind of experiment: MC4R activity, cAMP-responsive luciferase reporter in transfected HEK293 cells. The note with it: for stimulation of MC4R Δ1–24 by peptide (efficacy): compared with constitutive activity of wild-type MC4R, normalized to membrane expression, triplicate, Fig. 2a. The assay is classed as cell-based. (In general: A reporter such as luciferase makes a cellular process visible.)

The subject of assay [2] is wild-type MC4R. The description is as above. It counts as cell-based, human. The note with it: constitutive activity; Fig. 1f.

Sequence of MC4R Δ1–24 (P32245 25-332, stated change not applied): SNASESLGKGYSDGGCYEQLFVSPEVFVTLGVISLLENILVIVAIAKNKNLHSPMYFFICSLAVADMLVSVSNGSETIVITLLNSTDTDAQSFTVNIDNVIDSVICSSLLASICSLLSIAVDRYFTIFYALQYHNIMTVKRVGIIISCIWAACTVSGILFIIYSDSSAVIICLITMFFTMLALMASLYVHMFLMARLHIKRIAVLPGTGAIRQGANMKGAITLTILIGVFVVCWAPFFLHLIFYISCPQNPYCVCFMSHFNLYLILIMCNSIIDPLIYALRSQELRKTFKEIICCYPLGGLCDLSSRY

Take “Agouti-related protein (SSRRCVRLHESCLGQQVPCCDPCATCYCRFFNAFCYCRKLGTAMNPCSRT; UniProt O00253 83-132, looked up) [AgRP]”: the “AgRP antagonism of MC4R 2–26 activation of MC4R Δ1–24” value in assay [1] (Fig. 1f) is “inhibits the activation of MC4R Δ1–24 by MC4R 2–26 with similar potency as its inverse agonism of the wild-type receptor”. Besides, the “effect on residual N terminal–independent constitutive activity of MC4R Δ1–24” value in assay [1] (Supplementary Fig. 3a) was “inhibits the residual N terminal–independent constitutive activity”. Besides, the “inhibition of αMSH-induced receptor activation” value in assay [1] (receptor with or without the N-terminal domain, Supplementary Fig. 3e) is listed as “inhibits αMSH-induced receptor activation independent of the absence or presence of the N-terminal domain”. In addition, in assay [2], the “AgRP inverse agonism of wild-type MC4R” value was “inverse agonism of the wild-type receptor”.
Take HLWNRS [MC4R 14–19]: the “stimulation of MC4R Δ1–24 by peptide (efficacy)” value in assay [1] is “not significantly different from the constitutive activity of wild-type MC4R”.
Regarding “MC4R 2–19: smaller overlapping peptide spanning the MC4R N-terminal domain, residues 2–19 (VNSTHRGMHTSLHLWNRS)”, the “stimulation of MC4R Δ1–24 by peptide (efficacy)” value in assay [1] is given as “not significantly different from the constitutive activity of wild-type MC4R”.
Regarding “MC4R 8–20: smaller overlapping peptide spanning the MC4R N-terminal domain, residues 8–20 (GMHTSLHLWNRSS)”, the “stimulation of MC4R Δ1–24 by peptide (efficacy)” value in assay [1] was “not significantly different from the constitutive activity of wild-type MC4R”.
With “MC4R 8–26: smaller overlapping peptide spanning the MC4R N-terminal domain, residues 8–26 (GMHTSLHLWNRSSYRLHSN)”, the “stimulation of MC4R Δ1–24 by peptide (efficacy)” value in assay [1] is “not significantly different from the constitutive activity of wild-type MC4R”.
For the substance “MC4R 14–19 H14A: MC4R 14–19 hexapeptide with H14A substitution (ALWNRS)”, the “stimulation of MC4R Δ1–24 by peptide (efficacy)” value in assay [1] was “markedly disrupted MC4R 14–19 efficacy”.
On to “MC4R 14–19 L15A: MC4R 14–19 hexapeptide with L15A substitution (HAWNRS)”, for which the “stimulation of MC4R Δ1–24 by peptide (efficacy)” value in assay [1] is given as “not significantly different from the constitutive activity of wild-type MC4R”.
For “MC4R 14–19 N17A: MC4R 14–19 hexapeptide with N17A substitution (HLWARS)”, the “stimulation of MC4R Δ1–24 by peptide (efficacy)” value in assay [1] is “not significantly different from the constitutive activity of wild-type MC4R”.
For the substance “MC4R 14–19 R18L: MC4R 14–19 hexapeptide with R18L substitution (HLWNLS)”, the “stimulation of MC4R Δ1–24 by peptide (efficacy)” value in assay [1] is given as “markedly disrupted MC4R 14–19 efficacy”.
Regarding “MC4R 14–19 S19A: MC4R 14–19 hexapeptide with S19A substitution (HLWNRA)”, in assay [1], the “stimulation of MC4R Δ1–24 by peptide (efficacy)” value is reported as “not significantly different from the constitutive activity of wild-type MC4R”.
As for “MC4R 14–19 W16A: MC4R 14–19 hexapeptide with W16A substitution (HLANRS)”, in assay [1], the “stimulation of MC4R Δ1–24 by peptide (efficacy)” value is “markedly disrupted MC4R 14–19 efficacy”.
The same measure, in the same setting: in the case of “MC4R 14–26: smaller overlapping peptide spanning the MC4R N-terminal domain, residues 14–26 (HLWNRSSYRLHSN)” it was “not significantly different from the constitutive activity of wild-type MC4R”.
